Experimental data: US8597922B2, “Methods and compositions for producing olefins” (LS9, Inc., priority 2007, dated 2013)

Tests used:
[1] = In vitro α-olefin synthesis by purified His-tagged protein with hydrogen peroxide; format: biochemical; conditions: 200 μL purified protein, 200 μM hydrogen peroxide, 200 μM potassium hexadecanoate, room temperature overnight
Experimental: E. coli C41 DE3 (ΔfadE) cells were transformed with pET15b-orfKRH21570 using routine transformation techniques. Protein expression was carried out by first inoculating 5 mL of LB broth supplemented with 100 mg/L carbenicillin with a colony of the E. coli strain which was followed by shaking the cells overnight at 37° C. to produce a starter culture. This starter culture was used to inoculate 0.5 L of LB media supplemented with 100 mg/L of carbenicillin. The culture was shaken at 37° C. until an OD600 value of 0.6 was reached, after which it was induced with 1 mM IPTG and 0.5 mM delta-aminolaevulinic acid. The culture was then shaken at 25° C. for approximately 18 h. The protein was purified as described in Example 12.
To assay the activity of ORF_KRH21570, 200 μL of purified protein was incubated with 200 μM of hydrogen peroxide and 200 μM of potassium hexadecanoate. As a negative control, the same reaction was conducted, but without the addition of either purified protein (100 mM sodium phosphate pH 7.2 was used in its place) or free fatty acid. The reactions were performed in duplicates and incubated at room temperature overnight. […] Trimethylanilinium hydroxide was added to the ethyl acetate layer at a 1:1 ratio and the extracts analyzed by GC/MS using the MAR_splitless_short method. […]

[2] = tested on: E. coli C41 ΔfadE; format: cell-based; conditions: with 0.05% stearic acid feeding
Experimental: Genomic DNA encoding C. efficiens YS-134 (DSMZ44549) orfCE2459 (SEQ ID NO:6) was cloned into the NcoI and EcoRI sites of vector OP-80 (pCL1920 derivative) under the control of the Ptrc promoter. The resulting construct was then transformed into E. coli C41 ΔfadE.
The cells were grown at 37° C. in M9 minimal media supplemented with 20 μg/mL uracil, 1% glucose (w/v), and 100 μg/mL spectinomycin. When the culture reached an OD600 of 0.8 to 1.0, it was induced with 1 mM IPTG supplemented with 0.5 mM delta-aminolaevulinic acid (heme biosynthesis precursor), and 0.05% stearic acid (as a substrate for orfCE2459). The temperature was shifted to 25° C. and cells were allowed to grow for an additional 18-20 h Cells from 1 mL of culture were resuspended with 100 μL of methanol, sonicated for 30 min, and extracted with 300 μL of ethyl acetate. After vortexing for 15 min, 300 μL of water was added, and the mixture was vortexed for another 15 min before centrifugation at 15,000 rpm for 10 min. The solvent layer was analyzed by GC-MS.
Genomic DNA encoding Kokuria rhizophila DC2201 orfKRH21570 (SEQ ID NO:8), which was codon optimized (SEQ ID NO:9) for expression in E. coli, was cloned into the NdeI and XhoI sites of vector OP-183 (pACYC177 derivative) under the control of the Ptrc promoter. The resulting construct was then transformed into E. coli C41 ΔfadE. The cells were grown, extracted, and analyzed as in described in Example 7.
The genomic DNA encoding Bacillus subtilis fatty acid hydroxylase, Cyp152A1 (SEQ ID NO:13) or P450Bsβ, was cloned into the NdeI and XhoI sites of vector OP-183 (pACYC177 derivative) under the control of the Ptrc promoter. The construct was used as a template to introduce a mutation at position 85 changing the Glu to His using the following primer: GTTAATGCGATTCAcGGAATGGATGGC. The resulting constructs were then transformed into E. coli C41 (ΔfadE). The cells were grown at 37° C. in M9 minimal media supplemented with 20 μg/mL uracil, 1% glucose (w/v), and 100 μg/mL carbenicillin. When the culture reached OD600 of 0.8-1.0, it was induced with 1 mM IPTG; supplemented with 0.5 mM delta-aminolaevulinic acid (heme biosynthesis precursor) and 0.05% stearic acid (as a substrate for Bsb). The temperature was shifted down to 25° C. and cells were allowed to grow for an additional 18-20 h. Cells from 1 mL of culture was resuspended with 100 μL of methanol, sonicated for 30 min, and extracted with 300 μL of ethyl acetate. After vortexing the extract for 15 min, 300 μL of water was added, vortexed for another 15 minutes before centrifugation at 15,000 rpm for 10 minutes. The solvent layer was analyzed by GC-MS.

[3] = Specific activity of α-olefin and α/β-hydroxy fatty acid formation by purified enzymes; format: biochemical; conditions: for specific activity for 1-pentadecene formation: 500 μM H2O2, 200 μM potassium hexadecanoate, pH 7.2, room temperature, comparison between enzymes
Experimental: The specific activity of α-olefin formation as well as α-(2) and β-(3)hydroxy fatty acid formation were determined for ORF880, CYP152A1, and CYP152A1 Q85H (see Examples 12 and 16). An E. coli BL21 strain (DE3) (Invitrogen) was transformed with either pET15b-orf 880, pET15b-cyp152A1, and pET15b-cyp152A1 Q85H using routine chemical transformation techniques. Protein expression was carried out by first inoculating a colony of the E. coli strain in 5 mL of LB media supplemented with 100 mg/L of carbenicillin and shaken overnight at 37° C. to produce a starter culture. This starter culture was used to inoculate 0.5 L of LB media supplemented with 100 mg/L of carbenicillin. The culture was shaken at 37° C. until an OD600 value of 0.6 was reached. The culture was placed on ice for 10 min before IPTG was added to a final concentration of 250 μM. The culture was shaken at 25° C. for approximately 18 h, and then centrifuged at 3,700 rpm for 20 min at 4° C. The pellet was then resuspended in 10 mL of buffer containing 100 mM sodium phosphate buffer at pH 7.2 supplemented with Bacterial ProteaseArrest (GBiosciences). The cells were then sonicated at 12 W on ice for 9 sec with 1.5 sec of sonication followed by 1.5 sec of rest. This procedure was repeated 5 times with one min intervals between each sonication cycle. The cell free extract was centrifuged at 10,000 rpm for 30 min at 4° C. 5 mL of Ni-NTA (Qiagen) was added to the supernatant, and the mixture was gently stirred at 4° C. The slurry was passed over a column removing the resin from the lysate. The resin was then washed with 30 mL of buffer containing 100 mM sodium phosphate buffer at pH 7.2 plus 30 mM imidazole. Finally, the protein was eluted with 15 mL of 100 mM sodium phosphate buffer at pH 7.2 plus 250 mM imidazole. The protein solution was dialyzed with 200 volumes of 100 mM sodium phosphate buffer at pH 7.2 with 20% glycerol. Protein concentration was determined using the Bradford assay (Biorad). 578 μg/mL of ORF880, 865 μg/mL of CYP152A1, and 653 μg/mL of CYP152A1 Q85H protein was obtained.
To determine the specific activity with potassium hexadecanoate, the following reactions were set-up where each time point consisted of 500 μL. Each reaction contained of 500 μM H2O2, 200 μM of potassium hexadecanoate, 100 mM sodium phosphate buffer at pH 7.2, and protein at the following concentrations: ORF880-0.23 or 0.46 μM; CYP152A1-8.65, 17.3, or 34.6 μM; CYP152A1 Q85H-6.53, 13.06, or 26.12 μM. The reactions were carried out at room temperature and time points were taken at 0, 1, 3, 5, 7, 10, 14, and 20 minutes. Reactions were quenched with 50 μL of 12 M HCl and then extracted with 200 μL of ethyl acetate. 50 μL of this extract was then reacted with 50 μL N,O-Bis(trimethylsilyl)trifluoroacetamide with trimethyl-chlorosilane (Aldrich). Samples were analyzed using GC/MS using the following parameters: run time: 20 min; column: HP-5-MS Part No. 190915-433E (length of 30 meters; I.D.: 0.25 mm narrowbore; film: 0.25 μM); inject: 1 μL Agilent 6850 inlet; inlet: 300° C. splitless; carrier gas: helium; flow: 1.3 mL/min; oven temp: 100° C. hold 5 min, 320° C. at 20° C./min, 320° C. hold 5 min; det: Agilent 5975B VL MSD; det. temp: 300° C.; scan: 50-500 M/Z. Calibration curves were generated using 1-pentadecene, α(2)-hydroxyhexadecanoic acid, and β(3)-hydroxyhexadecanoic acid dissolved in ethyl acetate and derivatized as described herein.
Based upon this analysis, product formation was determined to be linear within the first three minutes. The specific activities for each enzyme concentration in the linear range were averaged for a given reaction (e.g., decarboxylation, α-hydroxylation, or β-hydroxylation). FIG. 21 summarizes the results. The specific activity for 1-pentadecene formation was similar for ORF880 and CYP152A1. Mutating the glutamine 85 residue to a histidine increased the specific activity of 1-pentadecene formation (i.e., increased fatty acid decarboxylase activity). […]

[4] = compared with the wild-type version of CYP152A1

Molecule | α-olefin formed from hexadecanoic acid [1] | α-olefin produced [2] | specific activity for 1-pentadecene formation [3] | rate of α-hydroxyhexadecanoic acid formation [3, 4] | rate of β-hydroxyhexadecanoic acid formation [3, 4]
orf_Mpop1292: ORF880 homolog P450 enzyme from Methylobacterium populi, ZP_02200540 (protein, listed as Methylobacterium populi) MPAAIATHRFRKARTLPREPAPDSTLALLREGYGFIRNRCRRHDSDLFAARLLLSPVICMSGAEAARHFYDGHRFTRRHALPPTSFALIQDHGSVMVLDGAAHLARKAMFLSLVGEEALQRLAGLAERHWREAVSGWARKDTVVLLDEAHRVLTAAVCEWVGLPLGPTEVDARAREFAAMIDGTGAVGPRNWRGHLYRARTERWVRKVIDEIRSGRRDVPPGAARTIAEHQDADGQRLDRTVAGVELINVLRPTVANARYIVFAAMALHDHPHQRAALADGGEAAERFTDEVRRFYPFIPFIGGRVRAPFHFGGHDFREGEWVLMDLYGTNRDPRLWHEPERFDPDRFARETIDPFNMVSHGAGSARDGHRCPGEGITRILLRTLSRQLAATRYTVPPQDLTLDLAHVPARPRSGFVMRAVHAP | 1-pentadecene |  |  |  | 
CYP152A1: Bacillus subtilis fatty acid hydroxylase, NP_388092 (protein, listed as Bacillus subtilis) MNEQIPHDKSLDNSLTLLKEGYLFIKNRTERYNSDLFQARLLGKNFICMTGAEAAKVFYDTDRFQRQNALPKRVQKSLFGVNAIQGMDGSAHIHRKMLFLSLMTPPHQKRLAELMTEEWKAAVTRWEKADEVVLFEEAKEILCRVACYWAGVPLKETEVKERADDFIDMVDAFGAVGPRHWKGRRARPRAEEWIEVMIEDARAGLLKTTSGTALHEMAFHTQEDGSQLDSRMAAIELINVLRPIVAISYFLVFSALALHEHPKYKEWLRSGNSREREMFVQEVRRYYPFGPFLGALVKKDFVWNNCEFKKGTSVLLDLYGTNHDPRLWDHPDEFRPERFAEREENLFDMIPQGGGHAEKGHRCPGEGITIEVMKASLDFLVHQIEYDVPEQSLHYSLARMPSLPESGFVMSGIRRKS |  | 1-heptadecene | similar |  | 
CYP152A1 Q85H (protein, UniProt O31440 1-417, looked up, variant Q85H) Fatty-acid peroxygenase: MNEQIPHDKSLDNSLTLLKEGYLFIKNRTERYNSDLFQARLLGKNFICMTGAEAAKVFYDTDRFQRQNALPKRVQKSLFGVNAIHGMDGSAHIHRKMLFLSLMTPPHQKRLAELMTEEWKAAVTRWEKADEVVLFEEAKEILCRVACYWAGVPLKETEVKERADDFIDMVDAFGAVGPRHWKGRRARPRAEEWIEVMIEDARAGLLKTTSGTALHEMAFHTQEDGSQLDSRMAAIELINVLRPIVAISYFLVFSALALHEHPKYKEWLRSGNSREREMFVQEVRRYYPFGPFLGALVKKDFVWNNCEFKKGTSVLLDLYGTNHDPRLWDHPDEFRPERFAEREENLFDMIPQGGGHAEKGHRCPGEGITIEVMKASLDFLVHQIEYDVPEQSLHYSLARMPSLPESGFVMSGIRRKS |  | capable of carrying out this reaction | increased | lowered | increased
